Assay [1] concerns mouse bone marrow derived macrophages (BMDM). Nature of the assay: G-CSF secretion in mouse BMDM (ELISA). The assay is classed as cell-based. Particulars: for secreted mouse G-CSF: mouse BMDM. Here is the method:
SAA induces G-CSF expression in monocytes and macrophages: To determine whether SAA plays a role in neutrophilia, the ability of SAA to stimulate G-CSF expression was investigated. Human peripheral blood monocytes (PBMC) were incubated with SAA, and the concentration of secreted G-CSF in the culture medium was determined at various time points after stimulation. The concentration of SAA used in this experiment (1 μM) was well within its physiological range (0.08 μM to 80 μM). […] Since subsequent studies used mice for measurement of G-CSF secretion and neutrophilia, SAA-induced G-CSF expression in mouse bone marrow derived macrophages (BMDM) was determined, of which 98% were F4/80^+ CD14^+ based on flow cytometry analysis. […] The basal level of G-CSF remained stable at approximately 42 pg/ml/10^6 cells over the entire course of incubation.
It was next determined whether induction of G-CSF expression was a primary function of SAA or resulted from contaminating LPS in the SAA preparation. The LPS concentration in the recombinant SAA preparation was ≦0.1 ng/μg protein, translating into ≦1.14 ng/ml LPS in a typical experiment with 1 μM SAA. LPS at this or 10-fold higher concentrations was tested for its effect on the expression of G-CSF. […] Given that most proteins are heat labile while LPS is heat resistant, the ability of heat-treated SAA (1 μM) and LPS (1 μg/ml) to stimulate G-CSF secretion in mouse BMDM was examined. After boiling for 25 min, LPS retained its ability to induce G-CSF production by ˜83%. […] In parallel experiments, polymyxin B, an amphiphilic cyclic polycationic peptide that specifically binds to LPS and blocks the cytokine-inducing effect of LPS (Stokes et al., 1989), was used to treat SAA or LPS prior to incubation with BMDM. […] Under the same experimental conditions, polymyxin B reduced LPS-stimulated G-CSF secretion by more than 70%.
It was previously shown that FPRL1 is involved in SAA-induced IL-8 production in human neutrophils (He et al., 2003). It has also been shown that SAA binds to FPRL1 and stimulates the production of matrix metalloproteinase (O'Hara et al., 2004). […] A role of TLR2 in SAA-stimulated G-CSF expression was examined.
Cell preparation and culture: Human peripheral blood monocytes were prepared from fresh, heparinized venous blood by Ficoll-Hypaque density-gradient centrifugation. Blood drawing followed a protocol approved by the Institutional Review Board at the University of Illinois at Chicago. Purified monocytes (>93% CD14^+ by flow cytometry) were kept in nonadherent condition in RPMI 1640 containing 0.5% FBS and maintained at 37° C. Mouse macrophages were differentiated from bone marrow cells. Mouse bone marrow cells were aspirated from the femurs of 8-12-week-old mice and cultured at 37° C. in 5% CO2 in RPMI 1640 medium containing 10% FBS, 15% L-cell conditional medium, 10 mM HEPES, 2 mM L-glutamine, 100 IU/ml penicillin, and 50 μg/ml streptomycin. The medium was changed every three days. Macrophages (about 98% F4/80+ by flow cytometry) were obtained after 7 days of culture. The mouse macrophage cell line RAW264.7 cells were maintained in DMEM medium supplemented with 10% FBS, 10 mM HEPES, 2 mM L-glutamine, 100 IU/ml penicillin, and 50 μg/ml streptomycin. TLR2-HeLa cells were generated by transfection of HeLa cell with the expression construct pUNO-hTLR2 (InvivoGen). Stable transfectants were selected with Blasticidin at 20 μg/ml for 2 weeks. Mock-transfected HeLa cells were generated similarly, with a pUNO empty vector. Cells were maintained in DMEM supplemented with 10% heat-inactivated FBS, 2 mM L-glutamine, 100 IU/ml penicillin, and 50 μg/ml streptomycin. Expression of TLR2 was confirmed using an anti-TLR2 antibody (eBioscience) and FTTC-conjugated anti-mouse antibody, on a FACSCalibur flow cytometer (Becton Dickinson). FIGS. 12 and 13 are plasmid maps of pUNO-hTLR2 and pNF-κB-Luc, respectively. […]

Another assay relates to TLR2-HeLa cells. Nature of the assay: IL-8 secretion in TLR2-HeLa cells (ELISA). Conditions: SAA 1 μM, up to 24 hours. The assay is classed as cell-based, human. Here is the method: FIG. 7 is a series of studies showing SAA-induced response in transfected HeLa cells. […] Pam3CSK4 is a known agonist for TLR2 and was used as a control. […] FIG. 7B is time course of SAA-induced IL-8 secretion in TLR2-HeLa cells compared to mock-transfected HeLa cells. SAA was used at 1 μM and the cells were stimulated for up to 24 hours. The supernatant was collected and secreted IL-8 was measured using ELISA.
In addition to the TLR2-HeLa cell line, a HeLa cell line stably expressing TLR2 and a 5xNF-κB luciferase reporter (pNF-kappaB-Luc, FIG. 13) was generated. This second cell line offers improved consistency between experiments by eliminating the need for transiently transfecting the NF-κB reporter each time an reporter assay is conducted. […] The TNFαc-stimulated reporter activity was used as an independent indicator for comparison. Both cell lines have been and will be used in characterization of SAA-induced functions and in screening assays. […] The TLR2-independent effect in IL-8 secretion was determined in parallel, in mock-transfected HeLa cells lacking the exogenous TLR2 (FIG. 7B).

Here are results for 1 molecule from patent US7629135B2, “Toll-like receptor agonists and antagonists and methods of use thereof” (The Board of Trustees of the University of Illinois, priority 2006, dated 2009).

B1: SAA: Recombinant human SAA purchased from PeproTech; major acute-phase protein of 104 amino acids (protein, UniProt P0DJI8 19-122, looked up)
Serum amyloid A-1 protein: RSFFSFLGEAFDGARDMWRAYSDMREANYIGSDKYFHARGNYDAAKRGPGGAWAAEVITDARENIQRFFGHGAEDSLADQAANEWGRSGKDPNHFRPAGLPEKY
In the case of B1, in assay [1] (BMDM, SAA, experiments of FIG. 4), the “maximal G-CSF production” value came out at 446 pg/ml/10^6 cells. Besides, in assay [1] (SAA 1 μM, boiled 25 min, BMDM, 16 h), the “ability to stimulate G-CSF secretion after heat treatment” value was “could no longer stimulate G-CSF secretion”. In addition, the “secreted mouse G-CSF” value in assay [1] (SAA 1 μM, after 8 h) is on record as 155 pg/ml/10^6 cells; in assay [1] (SAA 1 μM, after 24 h), 965 pg/ml/10^6 cells. The “ability to induce G-CSF protein secretion in tlr2−/− BMDM” value in assay [1] (tlr2−/− vs wild-type BMDM, SAA 1 μM) is on record as “drastically reduced”. The “secretion of IL-8” value with TLR2-HeLa cells was “time-dependent increase in the secretion of IL-8”.
